Reference: the DeepSol protein solubility set

Assay: soluble on expression in E. coli; label from the status in PepcDB or PDB records

**Q.** Which “soluble on expression in E. coli” value does the source give for “MGSDKIHHHHHHMIVYNSGAALEKARVRVGLVGTGYAAKFRAEALLHDERSQLIAVVGHTAEKTEAFVREYQIKALSSWQELVEREDVDLVVICTVNRDHGAIARAALTNGKHVIIEYPLSLDVVEADELIALAKAQKKLLHVEHLELLGGLHQALKQNLAKIGEVFYARYSTINPQNPAPRKWTYNHELFGFPLIGALSRLHRLIDLFGTVFTVNCHQRYWEIEPEYYQTCFCTSELCFNSGLLAQVVYGKGESIWQSERKFEVHGEKGGLVFDGDTGIFIQPEETTPIEVGPRRGLFAKDTAMVLDHLFDGTPLYVTPEQSLYTLKVADAAQRAAQTGFTMFM” here?
**A.** not soluble

**Q.** With “MGSDKIHHHHHHMIYYGTMFDHKVRFSIVRMREVVEEARNRHALSYLATVVLGRALIGAALVTPWLAEKERWTLDIEGNGPIRRVVAQSTSEFTVRGYVANPKVELPLNEKGKFDVAGAIGQGVLRVVRDLGLKTPFVSQVPLVSGEIAEDLAYYFAVSEQIPSAFSIGVLVDSDGVKIAGGFAVQIIDRTLEQEKVEMIEKNIKNLPSISKLFQEAEPLDVLERIFGEKVGFVETAEIKYKCDCNREKAKNALLVLDKKELEDMRKEGKGEVVCKWCNTRYVFSEEELEELLKFKVDDSGS” as the sequence, how does the “soluble on expression in E. coli” value read?
**A.** soluble

**Q.** Which “soluble on expression in E. coli” value does the source give for “MGSDKIHHHHHHMKAISANLQRLLAESGMKQSHLATILNIPTSSLNEYVKGKSLPKIGNIQKIADYFGLQKSDIDPRFASKKDSSTLDKINHIAKQLEMKRQIKVLDFCYQQSKEQDETASLSASDETTEDKVADKSNHTQYQKVVDSFIAKELNDQTIIHWDNVIKAKDLYQTFGRQYENIQIYGEVSAGTGIWVGHEKQETIKYPIPIPEHDIALIVNGNSMEPLFYNGDVIFVKKTKAIHHGQIIVVIVNNEAYVKKLYRKNKEIRLISLNPDYDDIILKEDDTIEVIGTVIT” here?
**A.** not soluble

**Q.** Which “soluble on expression in E. coli” value does the source give for “MGSDKIHHHHHHMKAVVIVKRAGQERPDLEYQTVPDPKPEPNELLVSVRAAGINRIDLHRSTAHGAPAAGKPLVAGLEMSGEVVAVGENVHDFRTGDKVYGMTTGSYAELATIDHRYALPVPPAFSFDQATAVATVYPTAHNALVTNGQFAAGKTVLIQGVSSAVGIATLQIAKAMGAKCVVGTGRPNANIGKLAEAGLDRFLLNGTDNIPAEIMAMTDGRGVDTIVDMVGGPTIADNLESVALAGRIVSVGWVGGTKGEIDLDTLARKRVTLVGVSFRTRTVEEKTELFAQFRRDVYPLFVNGTLVPYIAATYHLSEAAAAQDAMAEDKHFGKILLHP” here?
**A.** not soluble

**Q.** With “MGSDKIHHHHHHMKDVARDIYLSRDKIDEIKRKRFRSTLKYVYDNSPFYRRLFKESGVDIDSIKEPADIAKLPFTTKQNLRESYPLKMACVEKEKIVRIQMSGGTTGQPVIIPYTRHDVEQWKEMLLRDFYLAGITSKDVIQITPAFGLWNGGFGFHFAADAIDAFVIPIGAGNTRNQVRFMVDFGTTVLCATASYPLRIAEVAEEMGYEPAELPVQKMLLGAEPWSEEMRRQIEKTFNCKAFDIPGLTEMGGVGTVGFECPSRNGLHIWEDNYIVEIVDPETGEVLEDGEEGEIVYTSLNREAMPLIRYRSGEVSAVVSREKCECGIEHMTIKRIRGRTDDMVIYKGVKFYPSDVEQILASYGVRHYRIEVGEGIRVIFEGENGLARKVIKDIKEFLGFSPRIEVVQPGSLERFEGKAKRLFRG” as the sequence, how does the “soluble on expression in E. coli” value read?
**A.** not soluble

**Q.** With “MGSDKIHHHHHHMKEDSSLTPQEVADLLKITKYTVYEMVKRGELPAYRIGRKIRIEQRDVDAYIKQGKKLKYKDIDTLEASPRTQAARQDYLSTSPGLVICGQDLLLDILGRHLENHSQGCRAFRHNIGSFAGLLQLYQGESDMAGVHLWDSDSESYNIPYVRRMVPGIPTLIIHLAMRQQGFYVARSNPLGIKGWADLTIPGLRFINREPGCGTRVLLDEHLYQMKLDRRKINGYEREETSHLAVASAVARGTADLALGNEKAALQVRGIEFIPLQKERYELVIRKEDLDKAEIRAVLDILNSAAFKSELEGLGDYCLEETGRIVAEI” as the sequence, how does the “soluble on expression in E. coli” value read?
**A.** not soluble

**Q.** Which “soluble on expression in E. coli” value does the source give for “MGSDKIHHHHHHMKEPTIVKKEAFQAIGISITTTNEKEASTEGKIPGLWNRYFHEQIMHHIPNQQTKETFAFYSNYESDETGTYQFTIGMPVSSLEDVPENMTTLTIPAATYAVFTTRKGPVAEVVCEAWEYIWKWSKGNKRAFTIDFELYDEKATDPNNAQLDIYIALA” here?
**A.** not soluble

**Q.** For “MGSDKIHHHHHHMKEWRRNILGRELVVQYGKVAKQSSGSALVRFGDTVVLATANISDKAVEGIDFVPLTVEFQERFYAAGKIPGGFIKREGKPSESAILSARLIDRPIRPLFPKKLRNEVQVIVTVLSVDPNVPPDVVGIFAASLALNVSKIPFEGIVAGIRVGYRDGQFIALPSEEDIEKGLMDITVAGTKDAVTMVEGEAKEVTEEDMVKALRFAHSVIKELVDFQEEILSEFNVEKIPVVEPTPPEGLVEAFKDLLNKEELERRILVKVKKEREVALKEYEEQLLNQIAEKLSVTDLEGIKPFVSELYEDAVKKTMRRLIVEKGIRADGRKPTEIRPISCEVGLFPRTHGSALFTRGETQSLGIVTLGAPMDVQIIDTLLEEGVKRFMLHYNFPPFCTGEVKPLRGPSRREIGHGHLAERALKNMLPPEEEFPYTIRVVSEILESNGSSSMATVCSGSLALMDAGVPIKKHVAGIAMGLILEEDAEIILTDIIGMEDHYGDMDFKVAGTRDGITAFQMDCKVSGVSDELLMKALMQAREARMYILDRMYETISAPRPHLSKYAPIIKVTKVDPEKVADVIGPGGRVIKKIIKDFDVKVEIDDETGLVKVVGSSEENVDKAIELIREIAKEIEVGEVLEGKVTRIEPYGLFIEVRPGKIGLLHQSKVGEDMRQFLKKVKVGDTIKVQVINIDDLGRLQFKRVTEGENTQHGKTHSKRN”, which “soluble on expression in E. coli” value is on record?
**A.** not soluble

**Q.** For “MGSDKIHHHHHHMKFFSAPSPATRPPMRNRLPPLNPLRAFEAAARCGTVSAAADELHVTASAVSHQIRILESTLGVALFVRSKARVKLTPEGEALLEPVGAAFDMIANATVRLDSPAAAGDLVVSTPLSLTSRWLARHIGDFLERYPGIHLKVIPSNDDRETYSPDVDVCIRYGEGNWRNRRVELLAHPALFPVVSPALMNGPDAIRKVQDLAGRTLFCEHAGSWMRWLAEANADKLPGIRILEIGNAHIGVEAAVHGQGVALGDSLSVRDDLLDGTLVRPFSAAVPSRHAYYLVTRHELADSPLVTAFTTWLRACLA”, which “soluble on expression in E. coli” value is on record?
**A.** not soluble

**Q.** With “MGSDKIHHHHHHMKGEETLKKALLNIGKESPFYYYVLLGVKLVPSKNTRNLKLSFSTTGDVMLLYNPEAIGKKPLRMVQALLIHEVMHIVLQHFRIKPKDERDRKIWDLAMDAAINQYIPELAAFGVPLDVLVKEGHTTDNDTLFVLPPEWMMFENAEMYHKWILEEMERLGRYDVEVVAEFRDNVDDHSGLFEEDVPVEMILDLTKDRTKKAFNLFGNTLPSGVRREVSLSLENPELDWKTLLRRFFGVSIKADRYTTPLRPNRRYDHLPGWRNEYLPRIAAVVDTSGSIVEKELNQFISELEKISNIAGEELWLVQVDKSVTSAMKYRSGKWKDLEIVGGGSTDLQPAIDYSERVLRSEGTVVFTDGHTDVPIARRRILFVLSRYHNEEFLKEARKMYGRDAVVVLS” as the sequence, how does the “soluble on expression in E. coli” value read?
**A.** not soluble

**Q.** With “MGSDKIHHHHHHMKGKYRVGLISFSDGREYVHRELEGIVKKFEDEIAKTLEETGEVEVIRAKEIVWKPSIAKREARRLAEEGAEVTIFNYAVWAFPHFTVLASKFAPGPFLLFSNINPQYPGMVAMLSAAGALEQDGTKHYRMWGNIKDEKVLRKVMAFIRAGSTYKKLRGQRYGVFGGRSMGMYTAVPNVDLWNKIFGVDVEHIDQFEIVRRSQLIPDERARKGRLWIEEKAKAVHYDGKYLTPEKLELQIKSYHAVREIVEEMELDFVGIKGQLELTEHFVTMDVTETFLNDPYDWEGEHEPIVCATEADSDGALTMQIFKLIAKTPVLFADVRHYVEEYDVLDLCNSGNHATYFAARSFDPDENMKKVEFYPQTFYFPAGGAAVKHIAAPGKVTLGRLTREDGRYRFTVVPGEFVDFGEEKNYEIADSIQNNWPHAFLKMETPIDEFLAKYSSNHIHGVYGDYVEEIKTFCEIASIDFVLMK” as the sequence, how does the “soluble on expression in E. coli” value read?
**A.** not soluble

**Q.** For “MGSDKIHHHHHHMKHEPLELGLKIEDAILVNEKLKDFVVYKSGKPRIDFKNKEAMKEYNIAILGHVFGLDMDFHEDALIPTPINRYLFIKNIFDEKDDIKDVLEIGTGSGIISILIAKYFECNVTATDTVSDYLKIAKDNISKNNLTSKINLIDSKGKIIFDIPELKNKKFDLIISYPPYYADNSVASKRSFGGAFASEVELIGGGAYGEVFSQKIIEEGMDHLNNGGIVAIMFPEKPFERRKFVEDKILELGLTLEKSEITTGKRIRHIIKAKKE”, which “soluble on expression in E. coli” value is on record?
**A.** not soluble

**Q.** With “MGSDKIHHHHHHMKHGILVAYKPKGPTSHDVVDEVRKKLKTRKVGHGGTLDPFACGVLIIGVNQGTRILEFYKDLKKVYWVKMRLGLITETFDITGEVVEERECNVTEEEIREAIFSFVGEYDQVPPAYSAKKYKGERLYKLAREGKIINLPPKRVKIFKIWDVNIEGRDVSFRVEVSPGTYIRSLCMDIGYKLGCGATAVELVRESVGPHTIEESLNVFEAAPEEIENRIIPLEKCLEWLPRVVVHQESTKMILNGSQIHLEMLKEWDGFKKGEVVRVFNEEGRLLALAEAERNSSFLETLRKHERNERVLTLRKVFNTR” as the sequence, how does the “soluble on expression in E. coli” value read?
**A.** not soluble

**Q.** With “MGSDKIHHHHHHMKHTEMSLTDKKIIITRAQEQTSEARKIFRKNGAEVFDLPSLVIGPPDDWAPLDDALKKISTFDWIIFSSANGVRNVEDRMREIGLSLSKISKTIQIAAVGRKTASLLSDMDAEISFVPPSFVADSLLEYFPQNQKGLKLFIPRVQTGGRSILSDSFRLNGAEVTEVAAYESSCPKDVPQKTIEALKSGEIDIIAFTSGKTVINTVSLFNKYFGGNWFKLIEKIKLVSIGPQTTISCKKLIRKPDKEAEPHDLEGLLNACLELKFN” as the sequence, how does the “soluble on expression in E. coli” value read?
**A.** not soluble

**Q.** With “MGSDKIHHHHHHMKIALIATEKLPVPSVRGGAIQIYLEAVAPLIAKKHEVTVFSIKDPNLADREKVDGVHYVHLDEDRYEEAVGAELKKSRFDLVHVCNRPSWVPKLKKQAPDAVFILSVHNEMFAYDKISQAEGEICIDSVAQIVTVSDYIGQTITSRFPSARSKTKTVYSGVDLKTYHPRWTNEGQRAREEMRSELGLHGKKIVLFVGRLSKVKGPHILLQALPDIIEEHPDVMMVFIGSKWFGDNELNNYVKHLHTLGAMQKDHVTFIQFVKPKDIPRLYTMSDVFVCSSQWQEPLARVHYEAMAAGLPIITSNRGGNPEVIEEGKNGYIIHDFENPKQYAERINDLLSSSEKRERLGKYSRREAESNFGWQRVAENLLSVYEKNR” as the sequence, how does the “soluble on expression in E. coli” value read?
**A.** not soluble

**Q.** Which “soluble on expression in E. coli” value does the source give for “MGSDKIHHHHHHMKIDDMDAFVAVIRCQSTNLAAEALQLTQPAITRRVQNFEEDLGATLLDRNTKPLKPTPMGLRVYEQCKAILREIDSLRELVANDGAPSGTLRLGVPQTLGDVVLLDALAQIREAYPQLRTQVTSGWGSSLIARMENGELDAAAALFPPGKIFPEGIASQSIARMPLRVVTAKGSAGKRSYKLKDCYTRGWVLNPDGCGFRAGLQRALSEQGLSLSINLETFGTELQLGLVANGQGLGLVPEPLLQTSRHRSALDVLNISDFKPQVDLWLFHPRYLGNLQEPVELFGEVAGHRLLG” here?
**A.** not soluble

**Q.** Which “soluble on expression in E. coli” value does the source give for “MGSDKIHHHHHHMKIDRLISIIIVLLRRERVQAKELAEMFGVSVRTILRDVDTINLGGIPIITYQGVNGGISIAEGYRLDKSVLSAGDMATLISTLKGVAASIPDSRFDILAEKLKNPLSTSQLELLDLKSRQMIIDLSPWGTNEQLKGKITLLRQAIENYREIEFAYIDAAGTRSIRQVEPYALLLKGQSWYLFAWCLLRQDFRLFKLIRIKNLQLVNITYQPREVPMEQDYFENQWQETARPVELDLLFDKEMENVVEECFGGDIMRQDDGRIMVKVCLPENNWLYGYLLSFGGGMEVVNPPHIRSILAAIAEKIYKTYSS” here?
**A.** not soluble
